experiment: soluble on expression in E. coli; label from the status in PepcDB or PDB records

Sequence | soluble on expression in E. coli
MGSDKIHHHHHHMKVDLCARKQADAQASVGIIQREGGTARAYQCDIANPDSVRDFSVQLLEDSTPVDILVLSAAQWLEGALGEEDTDTDIVSTINSGLTGSILLTKTLLPSLRRSQSADILAMISVCGVPQFHDSIAHPAFFAAKHGLSGFSQNLAHHVAQENIRVTGFYPPDFEVTGFDDYPASGEKMGEHLLNARSIWETMRFVLTQPRSCHINAIHFQGPTRTDIGPY | not soluble
MKKTQLGRSFSKSFKQKKARASNASSDPFRFQNNGISYKGKLIGEQDVDKARGDAMCAEAMRTAKSIIKAAGAHKTRITLQINIDGIKVLDEKSGAVLHNFPVSRISFIARDSSDARAFGLVYGEPGGKYKFYGIKTAQAADQAVLAIRDMFQVVFEMKKKQIEQVKQQQIQDGGAEISSKKEGGVAVADLLDLESELQQIERGVQQLSTVPTNCDAFGASPFGDPFVDSFNSTATSNGTANMSGTQVPFGGLQLPQVQQMQMPMVQIPQQSHQNWPTSGAGSFDAWGQQQQQQQMHHAHSTPAFGTNGFSDTNPFASAFNTQARPPPLPTVAPTQYRDPFSVHSSAIPNSNIDWTGTGTTKENMAPSTNIQQQQSSLHHASTFANFGDNKAETWSEKKVTSLEEAFTKLVDMDALVGGQGIKETKKNPFEHILNPPKASLNSMSTTCSAAQMAATQQHTTSSHADPFGDDFFR | not soluble
MGSDKIHHHHHHMDIREKKTPPTLAPGQTSNPATSLPPRTVEGLRDLVVSIGRDQAEVKLGAKALTVLAHLVERPEEVAVRTITDLANSLDVNASTLTRLATRLGFEGFAEFQGVFRNSMAQRHRHFYSQQAERLVGADNTGMPGGVSPEVGAVVQLAHESIQNVERFVARLSAEELRGAAELLAEAPRVRVHGLRQFSALASFLCYGLSMIRSDVGLLDAHGLGVAEGLAQLQRGDVVVVMSVAPYTRSVAEAAAAAAESGLTVIAITDTSASPLAAAARHAFFIPHESSFFSNSMGAYLIFCEGLLNLAATKLGKRSLRALARREQMIAALDIETE | not soluble
MYYAIPTVVVSECLGFSACRYNGDIIRNSFVSRLGEFARLVPVCPEVAIGLGVPRETVRLVKRGEERRLVQSSTNRDWTREMNEFATSFFGQVGEVDGFILKGRSPTCGIKDVRVYDDEESGMVVEKGVGLFAEHVFRRFPNAAIEEEGRLTNAAIREHFLTKVFALALFREVKAKRSMKALVQFHSEHKYLFMAYSQTWLKQLGRLVANRDRLPVEQVLEAYGQGLHALFARAPQRRSHVNVCQHLMGYFKKEMSAKEKQYVLELLAQYRAQQLPLSSVASVLKSWAIREENDYLLQQRYFAPYPPALLDVRDSGKGREKAV | not soluble
MSLTEATVERIRLFLIESPIKMARLQGVGNVKGTVKRVLIELTSSDGVIGWGEAAPWEVFTGTPEAAFSALDIYLRPIALGKPVRRIRALMAELDRALVGHAEAKVAIEMALLDIVGKSSGLSVADLLGGRVRDTIPLSFSIADPDFPADLERMRKMVPDGNVIYKVKTGVKPHREDLDHLEAIRKEFGDKVDLRVDYNQALAPFGAIKILRDVEEFAPTFIEQPVPRKYLDVMAQLTAALETPVLADESCFDRRDMMEVVRREAADAVSIKLMKAGGLFEAQAIMAIADIAGLPGYGGTLWEGGIGLAAGTQLIAATPGISLGCEFYMPHHVLTEDVLEERVANRAGHVVVPDGPGLGIRVSEASVRANAQVLAEGHHHHHH | not soluble
MAENIPLRVQFKRMKAAEWASSDVVLLEGEIGFETDTGFAKFGDGQNTFSKLKYLTGPKGPKGDTGLQGKTGGTGSRGPAGKPGTTDYDQLQNKPDLGAFAQKEETNSKITKLESSKADKNAVYLKAESNAKLDEKLNLKGGVMTGQLQFKPNSGIKPSSSVGGAINIDMSKSEGAAMVMYTNKDTTDGPLMILRSNKDTFDQSVQFVDYKGTTNAVNIVMRQPTTPNFSSALNITSANEGGSAMQIRGVEKALGTLKITHENPSVDKEYDKNAAALSIDIVKKQKGGKGTAAQGIYINSTSGTTGKLLRIRNLNDDKFYVKPDGGFYAKETSQIDGNLKLKDPIANDHAATKAYVDGEVEKLKALLAAKQM | not soluble
EVDPAKCVLQGEDLHRAREKQTASFTLLCKDAAGEIMGRGGDNVQVAVVPKDKKDSPVRTMVQDNKDGTYYISYTPKEPGVYTVWVCIKEQHVQGSPFTVTVRRKH | soluble
MPLHVVEQPAFLVAVVPDMVGGRLSSHDKDLLGLARKLAGNDGAVLAVVFGEHKESAFDSAGVDRLLHLSGGEYDGYAPEQRILALRNLENQLAPRHWLFPDSRNGGGELGRRLAAALGERPAGRVWQVEDGRCIGRAGAGREDIQRALPRLLLAAAECAEPVSETRHEVRELHMAEQVARNLPRIEDLGPVAVDPA | not soluble

Source: the DeepSol protein solubility set
